Source: patent US20260274955A1 (JANUX THERAPEUTICS, published 2026)

B1: Phage-857 (peptide)
peptide: YCEGHIGDYIAKCL
B2: Phage-838 (peptide)
peptide: YCDGHHLEYIDKCL
B3: Phage-854 (peptide)
peptide: YCEGHLAVHMSKCL
B4: Phage-831 (peptide)
peptide: YCEGHAQQYMLKCL
B5: Phage-851 (peptide)
peptide: YCEGHAQMYMLKCL
B6: Phage-842 (peptide)
peptide: YCVGHLPLYMPNCL
B7: Phage-833 (peptide)
peptide: YCEGHFGMYMSKCL
B8: Phage-841 (peptide)
peptide: YCEGHMSEYMRKCL
B9: Phage-829 (peptide)
peptide: YCDGHAGIYVLKCL
B10: Phage-853 (peptide)
peptide: YCSGHLPMYMAKCL
B11: Phage-848 (peptide)
peptide: YCMGHSAEYMGKCL
B12: Phage-844 (peptide)
peptide: YCEGHLPQYLAKCY
B13: Phage-836 (peptide)
peptide: YCAGHLPQYVSKCL
B14: Phage-825 (peptide)
peptide: YCQGHSVQYMAKCL
B15: Phage-832 (peptide)
peptide: YCAGHSVQYMYKCL
B16: Phage-826 (peptide)
peptide: YCEGHSSEYMVKCL
B17: Phage-837 (peptide)
peptide: YCEGHLPWYMSKCL
B18: Phage-858 (peptide)
peptide: YCQGHSELYMSKCL
B19: Phage-827 (peptide)
peptide: YCDGHTGVYKWKCI
B20: Phage-828 (peptide)
peptide: YCAGHIGEYMDKCL
B21: Phage-840 (peptide)
peptide: YCQGHAPWYMVKCL
B22: Phage-846 (peptide)
peptide: YCEGHAAVYMHKCL
B23: Phage-830 (peptide)
peptide: YCDGHNPVYLAKCL
B24: Phage-859 (peptide)
peptide: YCDGHTPQFRAKCL
B25: Phage-843 (peptide)
peptide: YCDGHEPQYMTKCL
B26: Phage-835 (peptide)
peptide: YCQGHALQYLQKCL
B27: Phage-834 (peptide)
peptide: YCAGHMPQYMSKCL
B28: Phage-852 (peptide)
peptide: YCEGHSRQYMEKCM
B29: Phage-850 (peptide)
peptide: YCDGHAAWYLQKCL
B30: Phage-855 (peptide)
peptide: YCDGHIEMYMSKCM
B31: Phage-847 (peptide)
peptide: YCDGHMDAYMSKCL
B32: Phage-839 (peptide)
peptide: YCDGHLPRFMVKCL
B33: Phage-849 (peptide)
peptide: YCDGHAWWYMEKCL

Target: Anti-CD28 Fab (SEQ ID NOs: 202, 203)
Assay: phage binding ELISA on captured Fab, competitor CD28 antigen;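 further: clonal phage supernatant binding in wells preincubated with CD28 antigen in blocking buffer, detected by HRP-conjugated anti-M13 antibody ELISA, compared with blocking buffer alone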
Protocol: (§1) Clonal phage were harvested as crude supernatants and screened via standard ELISAs. […] Prior to the addition of clonal phage, wells were incubated with blocking buffer and CD28 antigen or blocking buffer alone. Without washing or aspirating, clonal phage supernatants were then added to the wells and incubated for a short time. Wells were then washed followed by detection of bound phage using a horse radish conjugated anti-M13 antibody.

Anti-CD28 Fab (SEQ ID NOs: 202, 203), sequence (VH, as listed by the source, chain 1 of 2): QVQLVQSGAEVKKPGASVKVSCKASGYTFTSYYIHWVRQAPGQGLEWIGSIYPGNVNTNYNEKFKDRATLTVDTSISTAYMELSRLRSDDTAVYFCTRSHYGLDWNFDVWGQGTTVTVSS
Anti-CD28 Fab (SEQ ID NOs: 202, 203), sequence (VL, as listed by the source, chain 2 of 2): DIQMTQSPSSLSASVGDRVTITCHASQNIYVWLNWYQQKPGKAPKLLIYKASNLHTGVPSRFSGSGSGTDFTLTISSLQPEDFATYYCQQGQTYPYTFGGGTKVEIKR

Binder | Anti-CD28 Fab signal in the presence of CD28
B1 | 0.36
B2 | 0.06
B3 | 0.06
B4 | 0.05
B5 | 0.06
B6 | 0.11
B7 | 0.07
B8 | 0.1
B9 | 0.08
B10 | 0.13
B11 | 0.06
B12 | 0.08
B13 | 0.06
B14 | 0.06
B15 | 0.06
B16 | 0.06
B17 | 0.09

Binder | Anti-CD28 Fab signal in the presence of CD28
B18 | 0.08
B19 | 0.06
B20 | 0.58
B21 | 0.08
B22 | 0.09
B23 | 0.08
B24 | 0.07
B25 | 0.1
B26 | 0.08
B27 | 0.05
B28 | 0.33
B29 | 0.07
B30 | 0.06
B31 | 0.06
B32 | 0.07
B33 | 0.06

Target: Anti-CD28 Fab (SEQ ID NOs: 202, 203)
Assay: phage binding ELISA on captured Fab;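 further: clonal phage supernatants added briefly to wells pre-incubated with CD28 antigen or with blocking buffer only, then washed, bound phage read by ELISA using HRP-coupled anti-M13 antibody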
Protocol: as §1

Binder | Anti-CD28 Fab (SEQ ID NOs: 202, 203) signal
B1 | 0.61
B2 | 0.69
B3 | 0.62
B4 | 0.74
B5 | 0.64
B6 | 0.68
B7 | 0.73
B8 | 0.69
B9 | 0.75
B10 | 0.62
B11 | 0.64
B12 | 0.67
B13 | 0.7
B14 | 0.77
B15 | 0.74
B16 | 0.77
B17 | 0.69

Binder | Anti-CD28 Fab (SEQ ID NOs: 202, 203) signal
B18 | 0.6
B19 | 0.76
B20 | 0.75
B21 | 0.69
B22 | 0.67
B23 | 0.74
B24 | 0.59
B25 | 0.68
B26 | 0.71
B27 | 0.72
B28 | 0.63
B29 | 0.64
B30 | 0.61
B31 | 0.65
B32 | 0.69
B33 | 0.64
